Results reported in paper PMC5390088, “Structural Basis for Substrate-specific Acetylation of Nα-acetyltransferase Ard1 from Sulfolobus solfataricus” (Scientific Reports, 2015).
Substitutions are numbered along the chain they refer to. Names may count otherwise.

T1: Sulfolobus solfataricus Ard1 (SsArd1), wild type (Sulfolobus solfataricus, UniProt Q980R9 1-167)
T1 construct: N-alpha-acetyltransferase Ard1 of Sulfolobus solfataricus (NatA family); one molecule in the asymmetric unit; also called wild-type SsArd1; source: E. coli BL21 (DE3), purified (Ni-Sepharose, size-exclusion chromatography)
T1 sequence: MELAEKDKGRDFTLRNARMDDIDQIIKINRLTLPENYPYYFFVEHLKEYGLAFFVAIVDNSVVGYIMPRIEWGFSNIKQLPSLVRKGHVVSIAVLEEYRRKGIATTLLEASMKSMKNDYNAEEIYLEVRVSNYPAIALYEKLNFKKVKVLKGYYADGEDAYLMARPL

T2: SsArd1 E35V mutant (Sulfolobus solfataricus) (UniProt Q980R9)
T2 sequence: T1 sequence with E35V

T3: SsArd1 E35A mutant (Sulfolobus solfataricus) (UniProt Q980R9)
T3 sequence: T1 sequence with E35A

T4: SsArd1 E35F mutant (Sulfolobus solfataricus) (UniProt Q980R9)
T4 sequence: T1 sequence with E35F

B1: Alba peptide (SSGTPT), N-terminal 6-mer of the chromatin protein Alba (peptide)
peptide: SSGTPT
notes: N-terminal 6 residues of Alba of Sulfolobus solfataricus, which has Ser at its N-terminus; Only the first 2 residues are seen in the electron density of the ternary complex; also called Alba substrate peptide; 6-mer Alba peptide; source: synthetic peptide (GenScript)
B2: SsArd1 (Saccharolobus solfataricus P2) (protein)
chain: T1 sequence
notes: pET28a, C-terminal His6-tag, expressed in E. coli BL21(DE3); monomer
B3: SsArd1 (Saccharolobus solfataricus P2; T105A) (protein)
chain: T1 sequence with T105A
notes: as for B2
B4: SsArd1 (Saccharolobus solfataricus P2; N132A) (protein)
chain: T1 sequence with N132A
notes: as for B2
B5: SsArd1 (Saccharolobus solfataricus P2; R100A) (protein)
chain: T1 sequence with R100A
notes: as for B2

Tests used:
SsArd1 = target: T5, SsArd1 (Saccharolobus solfataricus, UniProt Q980R9); test: X-ray crystal structure, […] Å; assay type: binding; conditions: co-crystallised binary complex; CoA also in ternary complex with peptide
T5 construct: gene ard1; pET28a, C-terminal His6-tag, expressed in E. coli BL21(DE3); monomer

[1] = target: T1, Sulfolobus solfataricus Ard1 (SsArd1), …; test: crystal structure; SsArd1-CoA crystals soaked with 2 mM Alba peptide (SSGTPT), dehydrated over 12.5% w/v PEG 4,000; ternary SsArd1-CoA/peptide complex at 1.84 Å; conditions: both partners purified
[2] = substrate: CC(=O)SCCNC(=O)CCNC(=O)[C@H](O)C(C)(C)COP(=O)(O)OP(=O)(O)OC[C@H]1O[C@@H](n2cnc3c(N)ncnc32)[C@H](O)[C@@H]1OP(=O)(O)O; test: Ellman (DTNB) acetyltransferase assay, Michaelis-Menten fit; assay type: biochemical, Saccharolobus solfataricus; conditions: saturating Alba peptide (SSGTPT), pH 8.0, 65°C
Text: Ellman (DTNB) acetyltransferase assay, Michaelis-Menten fit on SsArd1

[3] = target: T2, SsArd1 E35V mutant (Sulfolobus solfataricus)
[4] = target: T3, SsArd1 E35A mutant (Sulfolobus solfataricus)
[5] = target: T4, SsArd1 E35F mutant (Sulfolobus solfataricus)
[6] = mutant given as R132A in Table 3, N132A in text

Row | Molecule | Km [2] | kcat [2] | kcat/Km [2] | also measured
1 | CC(C)(COP(=O)(O)OP(=O)(O)OC[C@H]1O[C@@H](n2cnc3c(N)ncnc32)[C@H](O)[C@@H]1OP(=O)(O)O)[C@@H](O)C(=O)NCCC(=O)NCCS [CoA] | – | – | – | X-ray crystal structure, 2.13 Å (SsArd1): 4R3K for SsArd1-CoA and 4R3L for SsArd1-CoA/peptide
2 | B1 | – | – | – | binding result [1]: binds
3 | B2 | 67.17 ± 7.48 µM | 0.5595 ± 0.0275 s⁻¹ | 8370 M⁻¹ s⁻¹ | –
4 | B3 | 195.89 ± 12.27 µM | 0.5818 ± 0.0205 s⁻¹ | 2970 M⁻¹ s⁻¹ | –
5 | B4 | – | – | – | Km [2, 6]: 279.37 ± 75.86 µM; kcat [2, 6]: 0.556 ± 0.0647 s⁻¹; kcat/Km [2, 6]: 2050 M⁻¹ s⁻¹
6 | B5 | 466.98 ± 50.83 µM | 0.4783 ± 0.0448 s⁻¹ | 1020 M⁻¹ s⁻¹ | –
7 | MEEKVG [SSB peptide (MEEKVG), N-terminal 6-mer of the single-stranded DNA-binding protein SSB] | – | – | – | acetyltransferase activity with the SSB substrate peptide, against wild-type SsArd1 [3]: 5 fold; acetyltransferase activity with the SSB substrate peptide, against wild-type SsArd1 [4]: 8 fold
8 | AAKKRG [Hjc peptide (AAKKRG), N-terminal 6-mer of the Holliday junction-resolving enzyme Hjc] | – | – | – | acetyltransferase activity with the Hjc substrate peptide, against wild-type SsArd1 and the E35A mutant [5]: 2 fold; acetyltransferase activity with the Hjc substrate peptide, against wild-type SsArd1 and the E35A mutant [3]: 2 fold
